The source of these data is patent publication US20210292384A1 (LARIX BIOSCIENCE, published 2021).

Changes are numbered by the printed parent chain. In names and notes the source's numbering stands.

For this experiment, the target named is T1, RBD domain of SARS-CoV2 spike protein (SARS-CoV-2, UniProt P0DTC2 319-541).
T1 construct: domain: RBD domain
Nature of the experiment: Octet (BLI), ACE2-Fc against spike RBD. In general terms: Biolayer interferometry detects binding as a change in optical thickness at a sensor tip.

B1: LB697-D30E/L79W/N330Y (Fc fusion)
chain: QSTIEEQAKTFLEKFNHEAEDLFYQSSLASWNYNTNITEENVQNMNNAGDKWSAFLKEQSTWAQMYPLQEIQNLTVKLQLQALQQNGSSVLSEDKSKRLNTILNTMSTIYSTGKVCNPDNPQECLLLEPGLNEIMANSLDYNERLWAWESWRSEVGKQLRPLYEEYVVLKNEMARANHYEDYGDYWRGDYEVNGVDGYDYSRGQLIEDVEHTFEEIKPLYEHLHAYVRAKLMNAYPSYISPIGCLPAHLLGDMWGRFWTNLYSLTVPFGQKPNIDVTDAMVDQAWDAQRIFKEAEKFFVSVGLPNMTQGFWEYSMLTDPGNVQKAVCHPTAWDLGKGDFRILMCTKVTMDDFLTAHHEMGHIQYDMAYAAQPFLLRNGANEGFHEAVGEIMSLSAATPKHLKSIGLLSPDFQEDNETEINFLLKQALTIVGTLPFTYMLEKWRWMVFKGEIPKDQWMKKWWEMKREIVGVVEPVPHDETYCDPASLFHVSNDYSFIRYYTRTLYQFQFQEALCQAAKHEGPLHKCDISNSTEAGQKLFNMLRLGKSEPWTLALENVVGAKNMNVRPLLNYFEPLFTWLKDQNKNSFVGWSTDWSPYAD
B1 gave a Kd of 1.49 nM, a koff of 0.0012 s⁻¹ and a kon of 808000 M⁻¹ s⁻¹.

B2: LB697-D30E/Q42K/L79W/N330Y (Fc fusion)
chain: B1 chain with Q25K
Molecule B2 registered a Kd of 0.91 nM, an off-rate (koff) of 0.00074 s⁻¹ and a kon of 810000 M⁻¹ s⁻¹.

What is called Kd is the concentration at which binding is half-saturated. Low values mean tighter binding, high ones weaker binding. As usually defined, the koff is the rate constant with which the complex falls apart. Read a low koff as a long-lived complex. The term kon denotes a measure of how fast the partners come together. High values mean faster complex formation, low ones slower complex formation.
